The labels stand for the following.
B3: human CaMKII-α hub domain (domain or fragment, UniProt Q9UQM7 345-475, looked up)
chain: VRKQEIIKVTEQLIEAISNGDFESYTKMCDPGMTAFEPEALGNLVEGLDFHRFYFENLWSRNSKPVHTTILNPHIHLMGDESACIAYIRITQYLDAGGIPRTAQSEETRVWHRRDGKWQIVHFHRSGAPSV
notes: Ca2+/calmodulin-dependent protein kinase II alpha (CaMKII-α), human, hub domain, residues 345-475 of Uniprot Q9UQM7; Forms dodecameric and tetradecameric assemblies; also called the hub; hub assembly; source: E. coli BL21, purified (Ni-NTA, PreScission cleavage, Ni-NTA flow-through, Superose 6 gel filtration); not shown: His6, N-terminal, cleaved; copies: 12 or 14

Several values for one entry are separate records, joined by “and”; a condition that tells them apart may be missing. Equal entries are not always repeated. Non-standard residues stand in square brackets, D forms with d. No end group written: not given here. pT = C[C@@H](OP(=O)(O)O)[C@H](N)C(=O)O

For data set [1], the target named is B3. The data set can be described thus: native MS; hub 120 µM (subunits) mixed with 1 µM to 1 mM unphosphorylated peptide, ~400 mM ammonium acetate, incubated 5 min at room temperature; nanoelectrospray, sample cone voltage 50 V, source 80°C. Particulars: both partners purified.
The target of data set [2] is B3. The data set can be described thus: native MS; hub 120 µM (subunits) mixed with 1 to 100 µM phosphorylated peptide, ~400 mM ammonium acetate, injected at once without incubation; sample cone voltage 50 V. Particulars: both partners purified.
Data set [3] deals with the molecule itself. Kind of data set: native MS; hub alone, 120 µM subunit concentration in 400 mM ammonium acetate, 5 min at room temperature; nanoelectrospray, sample cone voltage 50 V, source 80°C.

B1: Peptide A (peptide)
peptide: LKKFNARRKLKGAILTTMLA
notes: source: bought: Elim Biopharm (lyophilized powder)
As for B1, in data set [1], the binding result is listed as “binds”.

B2: Peptide B^phos (peptide)
peptide: AIL[pT]TMLATRNFSGGKSGGNKK
modifications: also: phosphothreonine at Thr 305
notes: also called phosphorylated Peptide B; source: bought: Elim Biopharm (lyophilized powder)
Take B2: in data set [2], the binding result is given as “binds”.

As to B3, the “stoichiometry N” value in data set [3] is 12 and 14.

B4: Peptide B (peptide)
peptide: AILTTMLATRNFSGGKSGGNKK
notes: as for B1
As for B4, in data set [1], the binding result is “binds”.

B5: Peptide H, CaMKIINTide (peptide)
peptide: KRPPKLGQIGRSKRVVIEDDRIDDVLK
notes: as for B1
B5: in data set [1], the binding result was “binds”.

B6: Peptide A^phos (peptide)
peptide: LKKFNARRKLKGAIL[pT]TMLA
modifications: also: phosphothreonine at Thr 305
notes: also called phosphorylated Peptide A; source: bought: Elim Biopharm (lyophilized powder)
With B6, the binding result in data set [2] is reported as “binds”.

B7: Peptide G (peptide)
peptide: RSTVASCMHRQETVDCLKKFNA
notes: also called autonomy site peptide; source: bought: Elim Biopharm (lyophilized powder)
On to B7, for which, in data set [1], the binding result is “binds”.

The stoichiometry N is the number of molecules, sites or subunits per partner or assembly.
